Measured values reported in patent publication US7745185B1, “Sulfotransferase 1A3 sequence variants” (Mayo Foundation for Medical Education and Research, priority 2003, dated 2010).
Read-outs that look alike come from different tables or passages of the source.

Assays:
SULT1A3 [1] = molecular target: T1, SULT1A3 (Homo sapiens, UniProt P0DMM9, K234N); assay: SULT1A3 enzyme activity assay (sulfate conjugation of dopamine with PAPS) in COS-1 cytosol preparations; format: biochemical; settings: recombinant allozyme expressed in COS-1 cells, dopamine 40 μM
T1 construct: made in house; host or cells: COS-1 cells transfected with pCR3.1 construct; high speed supernatant cytosol, unpurified
Description: COS-1 cell expression: Two different SULT1A3 expression constructs were made using the pCR3.1 expression vector. One of the constructs was designed to express the SULT1A3 Lys234Asn allozyme, while the remaining construct was designed to express a wild type SULT1A3 polypeptide. All SULT1A3 cDNA sequences containing SULT1A3 nucleotide sequence variants used to create the expression constructs were created by site directed mutagenesis using the method described by Ho et al. (1989) Gene 77:51-59. Each SULT1A3 cDNA was amplified by PCR and subcloned into the eukaryotic expression vector pCR3.1 (Promega, Madison, Wis.). […]
Enzyme Assays: β-galactosidase activity in each of the COS-1 HSS preparations was measured with the β-galactosidase Enzyme Assay System (Promega, Madison, Wis.). […] The protein concentration of each recombinant protein preparation was determined by the dye-binding method of Bradford with bovine serum albumin (BSA) as a standard.
SULT1A3 enzyme activity was measured with an assay that involves sulfate conjugation of a sulfate acceptor substrate, dopamine (40 μM), in the presence of the sulfate donor 3′-phosphoadenosine-5′-phosphosulfate (PAPS). […] Enzyme activity was expressed as nanomoles (nmoles) of sulfate conjugated product formed per hour of incubation. […]

SULT1A3 [2] = molecular target: T2, SULT1A3 (Homo sapiens, UniProt P0DMM9); assay: Substrate kinetic studies, apparent Km for dopamine and PAPS; format: biochemical; settings: recombinant enzyme
T2 construct: made in house; host or cells: COS-1 cells transfected with pCR3.1 construct; high speed supernatant cytosol, unpurified
Description: SULT1A3 enzyme activity was measured with an assay that involves sulfate conjugation of a sulfate acceptor substrate, dopamine (40 μM), in the presence of the sulfate donor 3′-phosphoadenosine-5′-phosphosulfate (PAPS). […] Cytosol from COS-1 cells transfected with empty pCR3.1 were used to correct for endogenous SULT activity. Because SULTs display profound substrate inhibition, a range of dopamine concentrations were tested to ensure that the assays were performed at a dopamine concentration that yielded maximal activity for the Lys234Asn allozyme. Enzyme activity was expressed as nanomoles (nmoles) of sulfate conjugated product formed per hour of incubation. Apparent Km values for PAPS were determined in the presence of dopamine, with PAPS concentrations that varied from 0.035 μM to 0.5 μM and dopamine concentrations that varied from 2.5 μM to 80 μM.
Data Analysis: Apparent Km values were calculated by using the method of Wilkinson with a computer program written by Cleland. Wilkinson, Biochem. J., 80:324-332 (1961); and Cleland, Nature, 198:463-365 (1963). Statistical comparisons of data were performed by ANOVA with the StatView program, version 4.5 (Abacus Concepts, Inc., Berkeley, Calif.). Linkage analysis was performed after all DNA samples had been genotyped at each of the 6 polymorphic sites observed. D′ values, a quantitative method for reporting linkage data that is independent of allele frequency (Hartl and Clark, Principles of Population Genetics, 3rd ed. (1997) Sinauer Associates, Inc., (Sunderland, Mass.), pp. 96-106; and Hedrick, Genetics of Populations, 2nd ed. (2000) Jones and Bartlett (Sudbury, Mass.), pp. 396-405), then were calculated. The genotype data also were used to assign inferred haplotypes using a program based on the E-M algorithm (Long et al. (1995) Am. J. Hum. Genet. 56:799-810; and Excoffier and Slatkin (1995) Mol. Biol. Evol. 12:921-927). Unambiguous haplotype assignment also was possible on the basis of genotype for samples that contained no more than one heterozygous polymorphism.
Alterations in amino acid sequence can alter enzyme substrate affinity and/or catalytic efficiency. Substrate kinetic studies were conducted to determine whether the Lys234Asn allozyme differed from the WT SULT1A3 protein in these aspects. A series of dopamine and PAPS concentrations were used to estimate apparent Km values for recombinant wild type SULT1A3 and for the Lys234Asn variant allozyme.

[3] = PAPS 0.035 μM to 0.5 μM in the presence of dopamine, read-out: apparent Km for PAPS
[4] = dopamine 2.5 μM to 80 μM, read-out: apparent Km for dopamine

Row | Molecule | enzyme activity as percentage of WT activity (SULT1A3 [1]) [%] | reduction in enzyme activity (SULT1A3 [1]; relative to WT SULT1A3) [%] | Km (SULT1A3 [2]; [3]) [µM] | Km (SULT1A3 [2]; [4]) [µM]
1 | Lys234Asn: SULT1A3 polypeptide having an asparagine at amino acid residue 234 (allozyme encoded by thymine at nucleotide 702) (protein, listed as Homo sapiens) MELIQDTSRPPLEYVKGVPLIKYFAEALGPLQSFQARPDDLLINTYPKSGTTWVSQILDMIYQGGDLEKCNRAPIYVRVPFLEVNDPGEPSGLETLKDTPPPRLIKSHLPLALLPQTLLDQKVKVVYVARNPKDVAVSYYHFHRMEKAHPEPGTWDSFLEKFMAGEVSYGSWYQHVQEWWELSRTHPVLYLFYEDMKENPKREIQKILEFVGRSLPEETMDFMVQHTSFKEMKNNPMTNYTTVPQELMDHSISPFMRKGMAGDWKTTFTVAQNERFDADYAEKMAGCSLSFRSEL | 27 | 73 | 0.107 | 9.8
2 | WT: reference SULT1A3 polypeptide (SEQ ID NO:4) that contains a lysine at amino acid residue 234 (protein, listed as Homo sapiens) MELIQDTSRPPLEYVKGVPLIKYFAEALGPLQSFQARPDDLLINTYPKSGTTWVSQILDMIYQGGDLEKCNRAPIYVRVPFLEVNDPGEPSGLETLKDTPPPRLIKSHLPLALLPQTLLDQKVKVVYVARNPKDVAVSYYHFHRMEKAHPEPGTWDSFLEKFMAGEVSYGSWYQHVQEWWELSRTHPVLYLFYEDMKENPKREIQKILEFVGRSLPEETMDFMVQHTSFKEMKKNPMTNYTTVPQELMDHSISPFMRKGMAGDWKTTFTVAQNERFDADYAEKMAGCSLSFRSEL | – | – | 0.112 | 10.4
